From patent US20250090695A1, “IMMUNOSTIMULANT-CYTOTOXIC CONJUGATE COMPOSITION AND METHODS FOR CANCER TREATMENT” (The Research Foundation for the State University of New York, priority 2022, published 2025)
Like-named read-outs stand apart in the source and are kept apart here.

Experiments:
[1] = Biodistribution in a xenograft model of prostate cancer with PC-3 PiP (PSMA(+)) and PC-3 flu (PSMA(−)) tumors; format: in vivo, Male NCr nude mice; conditions: male, mouse, total radioactivity, PC-3 PiP/PC-3 flu xenograft, NCr nude mice
Description: Biodistribution analyses of ^177Lu-RIMS-1 and ^177Lu-PSMA-617 were carried out in a xenograft model of prostate cancer with a PC-3 PiP tumor (PSMA(+)) on the left shoulder of a murine subject, and a PC-3 flu tumor (PSMA(−)) on the right should of a murine subject. Murine subjects examined were Male NCr nude mice.

[2] = tested on: T-cells (CD3); assay: Immuno-PET ROI analysis of 89Zr-DFO-anti-CD3 after therapy (tumor infiltrating T-cells); format: in vivo, murine subjects
Description: FIG. 13A-13C describes a method and results for T-cell detection using immuno-positron emission tomography (PET).
FIG. 14A-14D show graphical representations of tumor infiltrating T-cell analysis after administration of a therapeutic compound or control. Infiltration was measured using immuno-positron emission tomography (PET).

[3] = tested on: CD8+ and CD4+ T-cell populations; assay: T-cell population analysis in spleen and tumor of RM1-PGLS bearing mice; format: in vivo; set-up: unit not given here; conditions: RM1-PGLS bearing C57BL/6J mice
Description: FIG. 12A-12B show graphical representations of T-cell population analysis measuring cell viability in the spleen (FIG. 12A). and in the tumor (FIG. 12B) in vivo for subjects having RM1-PGLS tumors with either an experimental ^177Lu-RIMS compound, or a control compound selected from: ^177Lu-PSMA-617, unlabeled Lu-RIMS, or a control vehicle.
^177Lu-RIMS-1 and control compounds were evaluated for immune cell recruitment.

[4] = tested on: RM1-PGLS tumors; format: in vivo, murine subjects
Description: FIG. 11A-11C show a visual schematic of RM1-PGLS tumor insertion in mice followed by T-cell population analysis (FIG. 11A), and tumor efficacy study analysis for in vivo tumor treatment with experimental ^177Lu-RIMS-1 compound compared with control compounds: ^177Lu-PSMA-617, unlabeled Lu-RIMS, and saline (FIG. 11B) measuring tumor volume (left), and percent survival (right).
Murine subjects were treated with RIMS compounds and tumor volume (FIG. 11B, left), subject viability measured as percent survival (FIG. 11B, right), subject weight (FIG. 11C), were described and analyzed as shown in FIGS. 11A-11C. Median overall survivability (OS) in murine subjects treated with RIMS compounds and control therapies.

[5] = OLINDA dosimetry to adult male from mouse biodistribution

CCCCc1nc2c(N)nc3ccccc3c2n1Cc1ccc(CNC(=O)OCc2ccc(NC(=O)[C@H](C)NC(=O)[C@@H](NC(=O)CCCCC(=O)N[C@@H](CCCCNC(=O)CN3CCN(CC(=O)O)CCN(CC(=O)O)CCN(CC(=O)O)CC3)C(=O)NC[C@H]3CC[C@H](C(=O)N[C@@H](Cc4ccc5ccccc5c4)C(=O)NCCCC[C@H](NC(=O)N[C@@H](CCC(=O)O)C(=O)O)C(=O)O)CC3)C(C)C)cc2)cc1 [^177Lu-RIMS-1, metal not drawn]
tissue uptake at 24 h ([1]; small intestine, read-out: Biodistribution Sm Int (% ID/g ± SD)): 0.54 ± 0.8 %ID/g
tissue uptake at 2 h ([1]; spleen, 2 h, read-out: Biodistribution Spleen (% ID/g ± SD)): 2.32 ± 0.052 %ID/g
tissue uptake at 24 h ([1]; spleen, read-out: Biodistribution Spleen (% ID/g ± SD)): 0.77 ± 0.31 %ID/g
tissue uptake at 72 h ([1]; spleen, 72 h, read-out: Biodistribution Spleen (% ID/g ± SD)): 0.29 ± 0.11 %ID/g
% Injected Dose/cc of 89Zr-DFO-anti-CD3 (ROI) ([2]; Blood, 8 days after administration of therapy): 7.95 ± 0.75 % Injected Dose/cc
% Injected Dose/cc of 89Zr-DFO-anti-CD3 (ROI) ([2]; Blood, 9 days after administration of therapy): 7.075 ± 0.94 % Injected Dose/cc
% Injected Dose/cc of 89Zr-DFO-anti-CD3 (ROI) ([2]; Blood, 10 days after administration of therapy): 4.98 ± 0.61 % Injected Dose/cc
% Injected Dose/cc of 89Zr-DFO-anti-CD3 (ROI) ([2]; Blood, 11 days after administration of therapy): 4.33 ± 1.40 % Injected Dose/cc
% Injected Dose/cc of 89Zr-DFO-anti-CD3 (ROI) ([2]; Blood, 12 days after administration of therapy): 3.07 ± 1.23 % Injected Dose/cc
% Injected Dose/cc of 89Zr-DFO-anti-CD3 (ROI) ([2]; Spleen, 8 days after administration of therapy): 15.65 ± 0.96 % Injected Dose/cc
% Injected Dose/cc of 89Zr-DFO-anti-CD3 (ROI) ([2]; Spleen, 9 days after administration of therapy): 19.39 ± 3.46 % Injected Dose/cc
% Injected Dose/cc of 89Zr-DFO-anti-CD3 (ROI) ([2]; Spleen, 10 days after administration of therapy): 18.45 ± 1.30 % Injected Dose/cc
% Injected Dose/cc of 89Zr-DFO-anti-CD3 (ROI) ([2]; Spleen, 11 days after administration of therapy): 19.06 ± 2.34 % Injected Dose/cc
% Injected Dose/cc of 89Zr-DFO-anti-CD3 (ROI) ([2]; Spleen, 12 days after administration of therapy): 18.54 ± 1.04 % Injected Dose/cc
% Injected Dose/cc of 89Zr-DFO-anti-CD3 (ROI) ([2]; Tumor, 8 days after administration of therapy): 15.85 ± 3.12 % Injected Dose/cc
% Injected Dose/cc of 89Zr-DFO-anti-CD3 (ROI) ([2]; Tumor, 9 days after administration of therapy): 14.94 ± 2.65 % Injected Dose/cc
% Injected Dose/cc of 89Zr-DFO-anti-CD3 (ROI) ([2]; Tumor, 10 days after administration of therapy): 13.74 ± 3.74 % Injected Dose/cc
% Injected Dose/cc of 89Zr-DFO-anti-CD3 (ROI) ([2]; Tumor, 11 days after administration of therapy): 12.20 ± 4.43 % Injected Dose/cc
% Injected Dose/cc of 89Zr-DFO-anti-CD3 (ROI) ([2]; Tumor, 12 days after administration of therapy): 11.83 ± 5.22 % Injected Dose/cc
Total CD4+ T-cell population ([3]; Spleen): 14.51 ± 2.24
Total CD8+ T-cell population ([3]; Spleen): 7.70 ± 0.84
Total CD4+ T-cell population ([3]; Tumor): 2.07 ± 1.54
Total CD8+ T-cell population ([3]; Tumor): 4.72 ± 2.70
Relative body weight ([4]; mouse, in vivo): decrease in relative body weight
Median OS ([4]; overall survival post treatment, RM1-PGLS tumors, P < 0.0007 printed for 177Lu-RIMS-1): 30 days
OLINDA dosimetry to Adult Male, Adrenals ([5]; Target Organ Adrenals): 8.71 μSv/MBq
OLINDA dosimetry to Adult Male, Brain ([5]; Target Organ Brain): 0.02 μSv/MBq
OLINDA dosimetry to Adult Male, Esophagus ([5]; Target Organ Esophagus): 2.03 μSv/MBq
OLINDA dosimetry to Adult Male, Eyes ([5]; Target Organ Eyes): 0.02 μSv/MBq
OLINDA dosimetry to Adult Male, Gallbladder Wall ([5]; Target Organ Gallbladder Wall): 7.09 μSv/MBq
OLINDA dosimetry to Adult Male, Heart Wall ([5]; Target Organ Heart Wall): 16.60 μSv/MBq
OLINDA dosimetry to Adult Male, Kidneys ([5]; Target Organ Kidneys): 262.00 μSv/MBq
OLINDA dosimetry to Adult Male, Left Colon ([5]; Target Organ Left Colon): 1.26 μSv/MBq
OLINDA dosimetry to Adult Male, Liver ([5]; Target Organ Liver): 219.00 μSv/MBq
OLINDA dosimetry to Adult Male, Lungs ([5]; Target Organ Lungs): 15.10 μSv/MBq
OLINDA dosimetry to Adult Male, Osteogenic Cells ([5]; Target Organ Osteogenic Cells): 3.70 μSv/MBq
OLINDA dosimetry to Adult Male, Pancreas ([5]; Target Organ Pancreas): 2.49 μSv/MBq
OLINDA dosimetry to Adult Male, Prostate ([5]; Target Organ Prostate): 0.34 μSv/MBq
OLINDA dosimetry to Adult Male, Rectum ([5]; Target Organ Rectum): 0.25 μSv/MBq
OLINDA dosimetry to Adult Male, Red Marrow ([5]; Target Organ Red Marrow): 1.39 μSv/MBq
OLINDA dosimetry to Adult Male, Right Colon ([5]; Target Organ Right Colon): 1.94 μSv/MBq
OLINDA dosimetry to Adult Male, Salivary Glands ([5]; Target Organ Salivary Glands): 0.05 μSv/MBq
OLINDA dosimetry to Adult Male, Small Intestine ([5]; Target Organ Small Intestine): 3.60 μSv/MBq
OLINDA dosimetry to Adult Male, Spleen ([5]; Target Organ Spleen): 228.00 μSv/MBq
OLINDA dosimetry to Adult Male, Stomach Wall ([5]; Target Organ Stomach Wall): 2.02 μSv/MBq
OLINDA dosimetry to Adult Male, Thymus ([5]; Target Organ Thymus): 0.95 μSv/MBq
OLINDA dosimetry to Adult Male, Thyroid ([5]; Target Organ Thyroid): 0.36 μSv/MBq
OLINDA dosimetry to Adult Male, Today Body ([5]; Target Organ Total Body): 7.73 μSv/MBq
OLINDA dosimetry to Adult Male, Tumor ([5]; Target Organ Tumor): 237.00 μSv/MBq
OLINDA dosimetry to Adult Male, Urinary Bladder Wall ([5]; Target Organ Urinary Bladder Wall): 10.90 μSv/MBq
